What was measured:
MBP-ERS I212T (human) = assay: EMSA; settings: 1 mM Mg2+; 5 ug/mL heparin (unit prefix not given); none (in vitro transcript); 25 mM Tris-HCl pH 7.5, 50 mM NaCl, 1 mM MgCl2, 1 mM DTT, 5 ug/mL heparin (prefix not given), 10 nM 32P-tRNA, room temperature 30 min; native 4-16% gel on …
MBP-ERS M487V (human) = assay: EMSA; settings: 1 mM Mg2+; 5 ug/mL heparin (unit prefix not given); none (in vitro transcript); 25 mM Tris-HCl pH 7.5, 50 mM NaCl, 1 mM MgCl2, 1 mM DTT, 5 ug/mL heparin (prefix not given), 10 nM 32P-tRNA, room temperature 30 min; native 4-16% gel on …

In the case of human tRNAGlu(TTC), the Kd (MBP-ERS I212T (human)) is reported as 2000 nM and the Kd (MBP-ERS M487V (human)) is reported as 1200 nM.

Source: article PMC9898101
